This note sets out measurements from the supplement of paper PMC6755084.

The labels stand for the following.
B1: minF1; the commonest letter at each place (parent)
chain: GAGACCGCAACTGAAAAGTTGTTATCAGAAATGGATGGGTTGAATTTCTGCACGTAGAAGCAAAAGGC

The data set covers variants of B1. Put plainly: fraction ligated after 30 min (ligated reads / total reads); higher = more ligase activity. To be noted: with F1*subA RNA substrate (template-directed ligation), 42 °C. The essentials: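 Using barcoded primers for reverse transcription and a MiSeq for sequencing, gel-separated ligated and unligated RNAs of minimized ligase ribozyme variants were read, with core-base filtering at quality ≥30. Fraction ligated per variant was defined as ligated reads over total reads.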
As for GAGACCGCAACTGAAAAGTTGTTATCCGAAATGGATCGGTTGAATTTCTGCACGTAGAAGCAAAAGGC, the fraction ligated came out at 0.004.
Turning to GAGACCGCAACTGAAAAGTTGTTATCCGAAATGGATAGGTTGAATTTCTGCACGTAGAAGCAAAAGGC, the fraction ligated stood at 0.0106.
Take GAGACCGCAACTGAAAAGTTGTTATCTGAAATGGATGGGTTGAGTTTCTGCACGTAGAAGCAAAAGGC: the fraction ligated amounted to 0.825.
GAGACCGCAACTGAAAAGTTGTTATCTGAAATGGATGGGTTGACTTTCTGCACGTAGAAGCAAAAGGC: the fraction ligated turned out to be 0.766.
In the case of GAGACCGCAACTGAAAAGTTGTTATCTGAAATGGATGGGTTGATTTTCTGCACGTAGAAGCAAAAGGC, the fraction ligated turned out to be 0.827.
Turning to GAGACCGCAACTGAAAAGTTGTTATCTGAAATGGATGGGTTGAATTTCTGCACGTAGAAGCAAAAGGC, the fraction ligated came out at 0.824.
In the case of GAGACCGCAACTGAAAAGTTGTTATCGGAAATGGATGGGTTGAATTTCTGCACGTAGAAGCAAAAGGC, the fraction ligated worked out at 0.803.
For the variant GAGACCGCAACTGAAAAGTTGTTATCCGAAAGGGATGGGTTGAATTTCTGCACGTAGAAGCAAAAGGC, the fraction ligated came to 0.0136.
In the case of GAGACCGCAACTGAAAAGTTGTTATCCGAAAAGGATGGGTTGAATTTCTGCACGTAGAAGCAAAAGGC, the fraction ligated came to 0.0275.
Regarding GAGACCGCAACTGAAAAGTTGTTATCCGAAACGGATGGGTTGAATTTCTGCACGTAGAAGCAAAAGGC, the fraction ligated amounted to 0.0159.
As for GAGACCGCAACTGAAAAGTTGTTATCGGACATGGATGGGTTGAATTTCTGCACGTAGAAGCAAAAGGC, the figure is 0.803; as for GAGACCGCAACTGAAAAGTTGTTATCGGAGATGGATGGGTTGAATTTCTGCACGTAGAAGCAAAAGGC, 0.824; as for GAGACCGCAACTGAAAAGTTGTTATCGGATATGGATGGGTTGAATTTCTGCACGTAGAAGCAAAAGGC, 0.78.
In the case of GAGACCGCAACTGAAAAGTTGTTATCTGAAATCGATGGGTTGAATTTCTGCACGTAGAAGCAAAAGGC, the fraction ligated stood at 0.822.
As for GAGACCGCAACTGAAAAGTTGTTATCTGAAATAGATGGGTTGAATTTCTGCACGTAGAAGCAAAAGGC, the fraction ligated was 0.829.
On to GAGACCGCAACTGAAAAGTTGTTATCTGAAATTGATGGGTTGAATTTCTGCACGTAGAAGCAAAAGGC, for which the fraction ligated came to 0.737.
The value for GAGACCGCAACTGAAAAGTTGTTATCGGAAATGGATGGGTTTAATTTCTGCACGTAGAAGCAAAAGGC was 0.16; that for GAGACCGCAACTGAAAAGTTGTTATCGGAAATGGATGGGTTAAATTTCTGCACGTAGAAGCAAAAGGC was 0.361; that for GAGACCGCAACTGAAAAGTTGTTATCGGAAATGGATGGGTTCAATTTCTGCACGTAGAAGCAAAAGGC was 0.0187.
In the case of GAGACCGCAACTGAAAAGTTGTTATCGGAAGTGGATGGGTTGAATTTCTGCACGTAGAAGCAAAAGGC, the fraction ligated came to 0.806.
For the variant GAGACCGCAACTGAAAAGTTGTTATCGGAATTGGATGGGTTGAATTTCTGCACGTAGAAGCAAAAGGC, the fraction ligated was found to be 0.816.
Consider GAGACCGCAACTGAAAAGTTGTTATCGGAACTGGATGGGTTGAATTTCTGCACGTAGAAGCAAAAGGC, for which the fraction ligated was determined as 0.802.
For the variant GAGACCGCAACTGAAAAGTTGTTATCTGATATGGATGGGTTGAATTTCTGCACGTAGAAGCAAAAGGC, the fraction ligated came to 0.834.
Consider GAGACCGCAACTGAAAAGTTGTTATCTGACATGGATGGGTTGAATTTCTGCACGTAGAAGCAAAAGGC, for which the fraction ligated stood at 0.822.
For GAGACCGCAACTGAAAAGTTGTTATCTGAGATGGATGGGTTGAATTTCTGCACGTAGAAGCAAAAGGC, the fraction ligated was determined as 0.851.
The value for GAGACCGCAACTGAAAAGTTGTTATCTGGAATGGATGGGTTGAATTTCTGCACGTAGAAGCAAAAGGC was 0.829; that for GAGACCGCAACTGAAAAGTTGTTATCTGTAATGGATGGGTTGAATTTCTGCACGTAGAAGCAAAAGGC was 0.832; that for GAGACCGCAACTGAAAAGTTGTTATCTGCAATGGATGGGTTGAATTTCTGCACGTAGAAGCAAAAGGC was 0.808.
Turning to GAGACCGCAACTGAAAAGTTGTTATCGGAAATGGATGGGTTGTATTTCTGCACGTAGAAGCAAAAGGC, the fraction ligated worked out at 0.169.
With GAGACCGCAACTGAAAAGTTGTTATCGGAAATGGATGGGTTGCATTTCTGCACGTAGAAGCAAAAGGC, the fraction ligated came to 0.132.
Take GAGACCGCAACTGAAAAGTTGTTATCGGAAATGGATGGGTTGGATTTCTGCACGTAGAAGCAAAAGGC: the fraction ligated was 0.105.
Turning to GAGACCGCAACTGAAAAGTTGTTATCTGAAATGGGTGGGTTGAATTTCTGCACGTAGAAGCAAAAGGC, the fraction ligated is 0.384.
Turning to GAGACCGCAACTGAAAAGTTGTTATCTGAAATGGCTGGGTTGAATTTCTGCACGTAGAAGCAAAAGGC, the fraction ligated is 0.406.
As for GAGACCGCAACTGAAAAGTTGTTATCTGAAATGGTTGGGTTGAATTTCTGCACGTAGAAGCAAAAGGC, the figure is 0.102.
As for GAGACCGCAACTGAAAAGTTGTTATCGGAAATGGAGGGGTTGAATTTCTGCACGTAGAAGCAAAAGGC, the fraction ligated worked out at 0.0614.
For GAGACCGCAACTGAAAAGTTGTTATCGGAAATGGACGGGTTGAATTTCTGCACGTAGAAGCAAAAGGC, the fraction ligated was found to be 0.0221.
The value for GAGACCGCAACTGAAAAGTTGTTATCGGAAATGGAAGGGTTGAATTTCTGCACGTAGAAGCAAAAGGC was 0.0472.
Consider GAGACCGCAACTGAAAAGTTGTTATCGGAAATTGATGGGTTGAATTTCTGCACGTAGAAGCAAAAGGC, for which the fraction ligated came out at 0.807.
The value for GAGACCGCAACTGAAAAGTTGTTATCGGAAATCGATGGGTTGAATTTCTGCACGTAGAAGCAAAAGGC was 0.35; that for GAGACCGCAACTGAAAAGTTGTTATCGGAAATAGATGGGTTGAATTTCTGCACGTAGAAGCAAAAGGC was 0.814.
